Source: the DeepSol protein solubility set

Test: soluble on expression in E. coli; label from the status in PepcDB or PDB records

Sequence | soluble on expression in E. coli
SLTKKVTIGSYIKFSDSCKRDGLANYSEQGRFWDVHRSQADDVQKIYNQELEFQRLAQRIGNCSGILRFSQIDDDETGKKKLKLRLQEAHFCRVRHCPVCQWRRSLMWQARFYSALPAIIKEYPKARFLFLTLTVKNCHIEDLSDTLRIMNSGWQRLKDRKEFKSVLGWIRSTEVTKGKDGSAHPHFHILLMVPPSWFTHSYVKKSRWAELWAYCARLDYSPVVDIRTVKNCVPEASSGLTEGLKAAVAETLKYSVKPSDMIEGNNWFLQMTKQVHRKRFIASGGVLKNILRESQETNEDLIFADNLNEISDRSRIAFNWRQSEKCYRRFEQGD | soluble
MGSSHHHHHHGGTGENLYFQGGSGMAYRHQATDQFHRFLHNPHVVQPDGVDGLPRVKGDQQQWLNTEQWHGYSDTYLQRHMQYPATVELNNPAVNARHDLLYECLGLVYELYGGLAEDLQELHDDPLHPHFHRRIARIKRDRERIATELDKRYAKLHPTVKTVYDAFLVRRYYHLADWIEHVERKRERLINDLSPDVMEKTMRMRGIAEQYLRHLRALEHALYEDPLMGLLGGDRGTNVLDQYTPGELAMLRQKAAYFRNMRRFGANQLDADMHTH | soluble
MSLNPKIITQYKNKKVDAASTMTDISGKNILMGFWHNWPSESGQGYQQGMFAEMPLTGIDKAYNVIAVAFMKGAGIPTFKPYNLSDEAFRAQVAELNAQGRAVLISLGGADAHIELHAGQEEALAYEIIRLVEVYGFDGLDIDLEQAAITFADNRTVLPAALRMVREHYETEGKHFIISMAPEFPYLRSAARDTPLLKEITTYFPFLKEAVAFLTSFRSGGAYLAYIEALEDLYDFIAPQYYNQGGDGIWVDELNLWVTQNNDAHKKEFLYYLTDSLIHGTRGFTKIPANRLAIGLPTNNDAAATGYVINPDDVKYALDTLQADGNPIRGLMTWSVNWDNGTPKVGEAYKWEFAKRYGYLTGGEGHHHHHH | soluble
MRITTKVGDKGSTRLFGGEEVWKDSPIIEANGTLDELTSFIGEAKHYVDEEMKGILEEIQNDIYKIMGEIGSKGKIEGISEERIKWLEGLISRYEEMVNLKSFVLPGGTLESAKLDVCRTIARRAERKVATVLREFGIGKEALVYLNRLSDLLFLLARVIEIEKNKLKEVRS | soluble
MSDSASNTENSIQIEIFPSRILSPETAQKLLVELSQVDGILRVMIQGNRLPEKVGYGPGTGEKVEHPLRKPIQIGGQVIELRVSVGRIRLEVLNAEVKENVRAVCEKMLPFSFEFREGHFLRRKPTVTDYAKLGPEADPRLLGMVDPKAKINQLVFIEKQEKEDDEDKDELEHHHHHH | soluble
MGSDKIHHHHHHMLFFSFILLPELDVTMEDSGRRIKNEYRAWKERKMTKLTVGLALGSGAAKGWAHIGVLNGLAKLDIYPDKVAGCSVGALVGAAYANNHLGELETWVSGFSSWDVLGLMDLGWRKGGLISGEKVFDVLANRIGDIDIEQLNRPFAAVATDLYSGQEIWFKEGDLRHAVRASCSMPGFLPPVQQGHRWVVDGAVVNPVPVSLARSMGVDVVIAVDLNGHRRGQMHLIPEQVKSRKASKSEPIDEKRELESGFMDLWGKGKDYMNGLTDKFSLGSSKSHPGMLAVMSQSMDILEQRHKRSRLMGEPPDICIVPDVGDIGTMEFHRAKEAIKAGEQAVNDIKHLIEATLK | not soluble
MMIDDSKVSFVIPTINEEGTIGSVIDGIRSEFPNSEIIVVDTNSTDRTREIARSKGARVIEEPRRGYGRAYQTGIPAASGEIIVCMDGDGTYPTDVVKPLIELLIADRVDFISCDRITFRTSKNYTTLHYVGNMVLNLTIRILFKVRMVDSQSGMWVFRSEIYRKMKNLGNGMSFSQNIKIEAVRHGVFMEIPIRYGVRITKPKLKTWHDGFHNLFALFVKRVSELEHHHHHH | soluble
MMMEIEDDEVPSPPSPHPAGTTIGGPNSKRYSDILSLDYCTFRIPYEELNIRFRNGQKDLDRAATGVAKAAELLQKKTAGSNEPVSRESLRRHFDLLIRQVQEARKTVERITQSEIEQLDKITTRADRIHEEFEVTRDSENPRNTEKLERQKFCRFIVWHMLRCGYIEPAKVLVKEMELEDLVDVDVFENMYAVQQALLDGNIQPCLAWCDRHHRKLRKLESRIELVARQQEAVTLIELGNIPEAVAYVKKYIAPIAKGKFTEDLKKTMGAIACTLEQSRLRNPELHAADRYQKCAALFIEEAHRIFEIHGNTALATLIQYGLATQKTPSCHNDEKTPLDKQKCIVCRPDVWPIAENLPYSHVANSRIFCSLSGKLCDDDKNIPFLFPSGHVIGSAAIERLKRDDNKLYDPIHKKLIDEEEALRLYFL | not soluble
MPAPLYGADDPLRCSGNSVSEVLDKFRKKYDLIMSLPQETKEEKEFRHCIWLAEKEEREQIYQTSIRPFRKATYTHFPEIDPRLRNYRSRYGAISND | not soluble
FNKIKDSVKQKIDSMGDKGTYGVSASHPLAVEEGMKVLKNGGSAVDAAIVVSYVLGVVELHASGIGGGGGMLIISKDKETFIDYRETTPYFTGNQKPHIGVPGFVAGMEYIHDNYGSLPMGELLQPAINYAEKGFKVDDSLTMRLDLAKPRIYSDKLSIFYPNGEPIETGETLIQTDLARTLKKIQKEGAKGFYEGGVARAISKTAKISLEDIKGYKVEVRKPVKGNYMGYDVYTAPPPFSGVTLLQMLKLAEKKEVYKDVDHTATYMSKMEEISRIAYQDRKKNLGDPNYVNMDPNKMVSDKYISTMKNENGDALSEAEHES | soluble
SLSKEKISVQENKKMATIRDISLKCGVSVSTVSKVLNGYREIGEETSKAVMKAAEELGYVPNSYARQLKLKKSYNIGVLFDTLSVYGLKNEYFAHILAALRENASQGGYDITFIENNIGNRRMTYLEHCKYRNFDGICIVCADFTNPEVLDVVNSDFPVVTIDHSFNEAISILSDNSGGMRDLAQYIVSMGHKKIAYIHGNKSSVTHNRLVAFHQVLAEHDIVIPEYYMKEGEYRLAESAEEFTYELLNLSDRPTCILASDDYAALGVIKAIKRAGLRFPEDISVAGFDGISISQALEPKLTTVKQDTEKLGEQAAKKLICLMESPMTTPLEHIVLKAELIIGDSVKKLREG | soluble
MGSDKIHHHHHHMFDWNDLRFFLELQRSGRLLTAAKRLNTTHSTVARHIESIEQSLGTALFVQHAQGYELTPSGQALLKHAEAMENVALLAQEEITQAITPLGKIRLGVTEGIGIMFFTPRMNALFERYPGLEVELVAVPRFVSILNREAEISIHLERPNADLLITRKLTDYRLALYASQAYLDRAPPLRHREDLARHSWIGYVDDLLFSQELLFLNSFCRVPNVVFRSTSVIAQQAAARAGLGIAVLPNYMARHDPTLVRVLPGETIQRSYWICTRRELHKSVRLRVVWDYLLALCAAEQSELLAE | not soluble
MGSDKIHHHHHHMNDQLTEYRIKKAPYYRATGDETELYEAAYSVRMPMMLKGPTGCGKTRFVEYMAYKLGKPLITVACNEDMTASDLVGRFLLDPQGTRWQDGPLTLAARLGAICYLDEVVEARQDTTVVIHPLTDNRRVLPLEKKGELVQAHPDFQLVISYNPGYQSLMKDLKQSTKQRFGALDFNYPDHEIEAEIVSHETGVNKEVADKLVSIAERARNLKGHGLDEGISTRMLVYAGSLINKGVEAKAACRVTLVRPITDDPDMRDALDAAVTTYF | not soluble
SGEIKVSPDYNWFRGTVPLKKIIVDDDDSKIWSLYDAGPRSIRCPLIFLPPVSGTADVFFRQILALTGWGYRVIALQYPVYWDHLEFCDGFRKLLDHLQLDKVHLFGASLGGFLAQKFAEYTHKSPRVHSLILCNSFSDTSIFNQTWTANSFWLMPAFMLKKIVLGNFSSGPVDPMMADAIDFMVDRLESLGQSELASRLTLNCQNSYVEPHKIRDIPVTIMDVFDQSALSTEAKEEMYKLYPNARRAHLKTGGNFPYLCRSAEVNLYVQIHLLQFHGTKYAAIDPSMVSAEELEVQKGSLGISQEEQ | soluble
MLPEHLVSSHFRLSSPPPEATENSKNLPKGKTKLSDYEPDILISANAAGQHRNVLFEERDRHIKERLYCVAKIETFARLINALQAEGDIDAQTLSKILADKTAMINEKGNAIWLNLITRETDMPLFYSLEDKDERS | not soluble
SHMTPDIILQRTGIDVRAVEQGDDAWHKLRLGVITASEVHNVIAKPRSGKKWPDMKMSYFHTLLAEVCTGVAPEVNAKALAWGKQYENDARTLFEFTSGVNVTESPIIYRDESMRTACSPDGLCSDGNGLELKCPFTSRDFMKFRLGGFEAIKSAYMAQVQYSMWVTRKNAWYFANYDPRMKREGLHYVVIERDEKYMASFDEIVPEFIEKMDEALAEIGFVFGEQWR | soluble
